B1: PvvpE (dsDNA)
DNA 1: ATCTTATTGATAAATCTGCGTAAAAAA
DNA 2: TTTTTTACGCAGATTTATCAATAAGAT
B2: PvvpE-mod (dsDNA)
DNA 1: TTCTTATTGATAAATTTGTGAATAAAA
DNA 2: TTTTATTCACAAATTTATCAATAAGAA

Target: T1, SmcR (Vibrio vulnificus, UniProt Q9L8G8 1-205)
T1 sequence: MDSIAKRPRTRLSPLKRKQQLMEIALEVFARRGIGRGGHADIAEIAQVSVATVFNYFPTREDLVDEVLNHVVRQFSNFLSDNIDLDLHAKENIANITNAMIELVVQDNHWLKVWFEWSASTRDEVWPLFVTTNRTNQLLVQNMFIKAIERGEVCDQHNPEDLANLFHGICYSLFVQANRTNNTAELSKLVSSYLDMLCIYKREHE
Assay: ITC

Binder | Kd [nM]
B1 | 2800
B2 | 76
